B1: R1463 (VHH)
VHH: QVQLVESGGGVVQPGGSLRLSCTCSRCTFNWDGMGWFRQAPGKGLEFVATISWSGQEPAYADSVKGRFTISRDNSKNTLYLQMTSLRAEDTAVYYCAAAQYTGASYSILRDQVGYDYWGQGTLVTVSS
notes: also called RX017 VHH-His标签; 对照
B2: R1464 (VHH, not shown: small tags and cut ends)
chain (part 1 of 3): HHHHHHQVQLVESGGGVVQPGGSLRLSCTCSRCTFNWDGMGWFRQAPGKGLEFVATISWSGQEPAYADSVKGRFTISRDNSKNTLYLQMTSLRAEDTAVYYCAAAQYTGASYSILRDQVGYDYWGQGTLVTVSS
chain (part 2 of 3): QVQLVESGGGVVQPGGSLRLSCTCSRCTFNWDGMGWFRQAPGKGLEFVATISWSGQEPAYADSVKGRFTISRDNSKNTLYLQMTSLRAEDTAVYYCAAAQYTGASYSILRDQVGYDYWGQGTLVTVSS
chain (part 3 of 3): QVQLVESGGGVVQPGGSLRLSCTCSRCTFNWDGMGWFRQAPGKGLEFVATISWSGQEPAYADSVKGRFTISRDNSKNTLYLQMTSLRAEDTAVYYCAAAQYTGASYSILRDQVGYDYWGQGTLVTVSS
notes: also called 人源化多价结合蛋白 R1464; His标签-VHH-Linker-VHH-Linker-VHH
B3: R1475 (VHH, not shown: small tags and cut ends)
VHH 1: QVQLVESGGGVVQPGGSLRLSCTCSRCTFNWDGMGWFRQAPGKGLEFVATISWSGQEPAYADSVKGRFTISRDNSKNTLYLQMTSLRAEDTAVYYCAAAQYTGASYSILRDQVGYDYWGQGTLVTVSS
VHH 2: QVQLVESGGGVVQPGGSLRLSCTCSRCTFNWDGMGWFRQAPGKGLEFVATISWSGQEPAYADSVKGRFTISRDNSKNTLYLQMTSLRAEDTAVYYCAAAQYTGASYSILRDQVGYDYWGQGTLVTVSS
notes: also called 人源化多价结合蛋白 R1475; VHH-Linker-VHH-His标签

The assay addresses 野生株SARS-COV-2 RBD蛋白(Ag27) (SARS-COV-2 野生株, UniProt P0DTC2 319-541).
Take B1: the IC50 was determined as 0.0359 nM. B2 showed an IC50 of 0.0272 nM.

Regarding B3, it took 0.0206 nM to reach half-maximal inhibition (IC50). This IC50 and that of the molecule before are within 1.5-fold of each other.

One may read the IC50 as the point on the concentration scale where inhibition reaches its midpoint. Read a high IC50 as weaker potency in that assay.

(Values after patent publication CN115057938A (dated 2022).)
